Data from article PMC9994480, “Infancy‐onset diabetes caused by de‐regulated AMPylation of the human endoplasmic reticulum chaperone BiP” (EMBO Molecular Medicine, 2023).
Positions count from the first letter of the chain named. Names and notes keep the numbering of the source.

B1: wild-type FICD, structured luminal domain (residues 104–445) (enzyme, human, UniProt Q9BVA6 104-445, looked up)
chain: LEARAALNQALEMKRQGKREKAQKLFMHALKMDPDFVDALTEFGIFSEEDKDIIQADYLYTRALTISPYHEKALVNRDRTLPLVEEIDQRYFSIIDSKVKKVMSIPKGNSALRRVMEETYYHHIYHTVAIEGNTLTLSEIRHILETRYAVPGKSLEEQNEVIGMHAAMKYINTTLVSRIGSVTISDVLEIHRRVLGYVDPVEAGRFRTTQVLVGHHIPPHPQDVEKQMQEFVQWLNSEEAMNLHPVEFAALAHYKLVYIHPFIDGNGRTSRLLMNLILMQAGYPPITIRKEQRSDYYHVLEAANEGDVRPFIRFIAKCTETTLDTLLFATTEYSVALPEAQP
notes: human FICD, structured region, residues 104-445; The methods say His6-SUMO fusion (cleaved by Ulp1) or GST fusion (cleaved by TEV) without telling which for which protein; Purification as in Perera et al, 2019, 2021; also called WT; FICD^WT; not shown: His6-SUMO (or GST)
B2: FICD^R371S, structured luminal domain (residues 104–445) (enzyme, human, UniProt Q9BVA6 104-445, looked up)
chain: B1 chain with R268S
notes: human FICD, structured region, residues 104-445, with the patients' variant p.(Arg371Ser); Variant found homozygous in patients (NM_007076.2:c.1113G>C); also called Arg371Ser mutant FICD; FICD p.(Arg371Ser); not shown: His6-SUMO (or GST)

Target: the molecule itself
Test: SEC; analytical SEC, Agilent Bio SEC-3 HPLC column, TNT buffer (25 mM Tris pH 8.0, 150 mM NaCl, 1 mM TCEP), 25°C; proteins diluted to a range of concentrations (Fig 3B) and incubated at least 1 h at room temperature; 0.3 ml/min

Protein	stoichiometry N
B1	2
B2	2
